Reference: PMC6070450, “The tetraamine chelator outperforms HYNIC in a new technetium-99m-labelled somatostatin receptor 2 antagonist” (EJNMMI Research, 2018)
Read-outs that look alike come from different tables or passages of the source.

Legend:
sst2 [1] = target: T1, sst2 (Homo sapiens, UniProt P30874); settings: mean ± SEM; cited from earlier work
T1 construct: expressed in transfected cells; host or cells: CCL39 cells (gift of Dr. D. Hoyer, Novartis)
Excerpt: Table 2 Binding affinities (IC50, nM) of chelator-peptide conjugates | column: IC50 (nM)* / sst2

sst4 [2] = target: T2, sst4 (Homo sapiens, UniProt P31391); settings: mean ± SEM; cited from earlier work
T2 construct: expressed in transfected cells; host or cells: CCL39 cells (gift of Dr. D. Hoyer, Novartis)
T2 sequence (P31391 whole entry): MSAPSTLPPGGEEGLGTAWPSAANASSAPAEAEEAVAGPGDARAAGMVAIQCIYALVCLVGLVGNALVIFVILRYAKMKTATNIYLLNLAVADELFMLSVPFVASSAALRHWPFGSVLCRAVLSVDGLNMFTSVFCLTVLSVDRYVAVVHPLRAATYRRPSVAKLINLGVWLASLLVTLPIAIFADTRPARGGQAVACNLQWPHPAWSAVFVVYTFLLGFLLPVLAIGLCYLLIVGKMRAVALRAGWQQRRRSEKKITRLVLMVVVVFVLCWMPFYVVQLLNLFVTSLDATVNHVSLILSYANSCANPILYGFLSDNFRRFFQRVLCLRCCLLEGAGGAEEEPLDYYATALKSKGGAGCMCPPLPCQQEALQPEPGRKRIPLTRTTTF
Excerpt: Table 2 Binding affinities (IC50, nM) of chelator-peptide conjugates | column: IC50 (nM)* / sst4

sst3 [3] = target: T3, sst3 (Homo sapiens, UniProt P32745); settings: mean ± SEM; cited from earlier work
T3 construct: expressed in transfected cells; host or cells: CCL39 cells (gift of Dr. D. Hoyer, Novartis)
T3 sequence (P32745 whole entry): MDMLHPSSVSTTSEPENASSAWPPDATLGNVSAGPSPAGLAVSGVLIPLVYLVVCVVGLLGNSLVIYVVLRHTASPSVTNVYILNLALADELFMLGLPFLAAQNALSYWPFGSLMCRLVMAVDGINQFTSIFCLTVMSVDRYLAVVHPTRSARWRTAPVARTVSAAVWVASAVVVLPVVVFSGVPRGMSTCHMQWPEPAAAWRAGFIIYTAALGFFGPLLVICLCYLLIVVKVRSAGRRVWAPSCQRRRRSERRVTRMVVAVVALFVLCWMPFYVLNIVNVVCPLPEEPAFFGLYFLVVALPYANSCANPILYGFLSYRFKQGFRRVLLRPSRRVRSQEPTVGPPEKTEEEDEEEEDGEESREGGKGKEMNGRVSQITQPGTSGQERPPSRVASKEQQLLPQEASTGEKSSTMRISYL
Excerpt: Table 2 Binding affinities (IC50, nM) of chelator-peptide conjugates | column: IC50 (nM)* / sst3

sst1 [4] = target: T4, sst1 (Homo sapiens, UniProt P30872); settings: mean ± SEM; cited from earlier work
T4 construct: expressed in transfected cells; host or cells: Chinese hamster ovary cells (gift of Drs. T. Reisine and G. Singh)
T4 sequence (P30872 whole entry): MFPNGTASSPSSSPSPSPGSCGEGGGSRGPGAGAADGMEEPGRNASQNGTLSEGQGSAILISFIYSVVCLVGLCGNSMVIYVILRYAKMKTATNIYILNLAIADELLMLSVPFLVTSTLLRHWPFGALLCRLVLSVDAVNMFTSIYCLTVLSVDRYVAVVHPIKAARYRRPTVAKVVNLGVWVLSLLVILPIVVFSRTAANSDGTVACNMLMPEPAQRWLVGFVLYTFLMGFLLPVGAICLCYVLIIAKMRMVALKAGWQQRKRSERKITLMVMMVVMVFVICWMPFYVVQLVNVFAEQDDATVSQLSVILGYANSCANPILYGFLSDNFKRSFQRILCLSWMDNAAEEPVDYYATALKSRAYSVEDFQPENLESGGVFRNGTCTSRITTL
Excerpt: Table 2 Binding affinities (IC50, nM) of chelator-peptide conjugates | column: IC50 (nM)* / sst1

sst5 [5] = target: T5, sst5 (Homo sapiens, UniProt P35346); settings: mean ± SEM; cited from earlier work
T5 construct: expressed in transfected cells; host or cells: HEK293 cells (gift of Prof. Stefan Schulz, University of Jena)
T5 sequence (P35346 whole entry): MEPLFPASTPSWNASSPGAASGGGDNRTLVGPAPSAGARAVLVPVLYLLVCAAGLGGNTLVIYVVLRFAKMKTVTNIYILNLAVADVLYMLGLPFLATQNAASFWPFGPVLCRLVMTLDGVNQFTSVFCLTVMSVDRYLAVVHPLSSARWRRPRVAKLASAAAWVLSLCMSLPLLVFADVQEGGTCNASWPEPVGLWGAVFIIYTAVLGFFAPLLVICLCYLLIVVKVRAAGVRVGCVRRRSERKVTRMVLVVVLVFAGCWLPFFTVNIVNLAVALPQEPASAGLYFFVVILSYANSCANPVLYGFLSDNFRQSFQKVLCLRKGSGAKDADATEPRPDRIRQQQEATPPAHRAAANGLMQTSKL
Excerpt: Table 2 Binding affinities (IC50, nM) of chelator-peptide conjugates | column: IC50 (nM)* / sst5

sst4 [6] = target: T2, sst4; assay: Receptor autoradiography binding affinity, sst4; settings: membrane pellet sections of sst4-expressing CCL39 cells; mean ± SEM, n ≥ 3
Method: (§1) Cell membrane pellets were prepared from human sst1-expressing Chinese hamster ovary cells (kindly provided by Drs. T. Reisine and G. Singh, University of Pennsylvania, Philadelphia, Pa.); sst2-, sst3-, and sst4-expressing CCL39 cells (kindly provided by Dr. D. Hoyer, Novartis Pharma, Basel, Switzerland); and sst5-expressing human embryonic kidney 293 (HEK293) cells (kindly provided by Prof. Stefan Schulz, University of Jena, Germany) and stored at − 80 °C. Quantitative receptor autoradiography was performed on 20-μm-thick membrane pellet sections and quantitated as previously described.

sst5 [7] = target: T5, sst5; assay: Receptor autoradiography binding affinity, sst5; settings: membrane pellet sections of sst5-expressing HEK293 cells; mean ± SEM, n ≥ 3
Method: as §1

sst1 [8] = target: T4, sst1; assay: Receptor autoradiography binding affinity, sst1; settings: membrane pellet sections of human sst1-expressing CHO cells; mean ± SEM, n ≥ 3
Method: as §1

sst2 [9] = target: T1, sst2; assay: Receptor autoradiography binding affinity, sst2; settings: membrane pellet sections of sst2-expressing CCL39 cells; mean ± SEM, n ≥ 3
Method: as §1

sst3 [10] = target: T3, sst3; assay: Receptor autoradiography binding affinity, sst3; settings: membrane pellet sections of sst3-expressing CCL39 cells; mean ± SEM, n ≥ 3
Method: as §1

[11] = type: physicochemical
Method: The distribution coefficients (log D) were determined using the shake-flask method (see Additional file 1). […]
equivalents of DIPEA were used. The cleavage and deprotection of the peptide-chelator conjugates was accomplished by incubating for 1.5h in TFA:thioanisole:triisopropylsilane:H2O 95:2:2:1. The resin was then filtered and washed with the above mixture, after which the filtrate was evaporated and triturated with diethyl ether to give the crude product. This was purified by semi-preparative HPLC to obtain the corresponding chelator-peptide conjugate with purity ≥97%.
Radiolabeling of Chelator-Peptide Conjugates
177Lu-SS-03: 10 µg of SS-03 in 300 µL sodium acetate buffer (0.4 mol/L, pH 5.0) were […]
phosphate buffer pH 11.5 (50 μL) and 0.1 M sodium citrate (5 μL) followed by SS-04 solution (30 μg, 25 μL) and freshly prepared SnCl2 solution in ethanol (30 μg, 25 μL). […]
99mTc-SS-05: 30 µg SS05 was added to 1 mL aqueous edda/tricine solution (5 mg edda, 15 mg tricine). […] All radiolabeled peptides were analyzed with analytical HPLC. […]
Each radiopeptide was added to a presaturated 1/1mixture of PBS/n-octanol, at a concentration of 100 nmol/L. The mixtures were vigorously shaken for 10 min and then centrifuged. The activity concentrations of equal volume samples of both phases were measured in a γ-counter and the partition coefficient (LogD) was calculated. […]

in vivo = assay: in vivo; design: species or system mice; settings: female, athymic nude, mouse, iv, 10 pmol, total radioactivity
Method: All animal experiments were conducted in compliance with Swiss animal protection laws and associated regulations. The protocol was approved by the Cantonal Veterinary Ethics Committee of the University of Basel (approval #789). Female athymic nude mice (4–6 weeks old) were injected subcutaneously (s.c.) in the right shoulder with 10^7 HEK293-rsst2 cells in 100 μL sterile PBS. The tumours were allowed to grow for 14–18 days (tumour weight 100–200 mg).
The mice were injected into the tail vein with 100 μL/10 pmol/0.37 MBq of ^177Lu-SS-03 or ^99mTc-SS-04 and were euthanised at 1, 4, and 24 h post-injection (p.i.). Organs of interest and blood were collected, rinsed of excess blood, blotted dry, weighed, and counted in a γ-counter. To determine nonspecific uptake, three animals were pre-injected with 20 nmol of the relevant unlabelled peptide in 0.9% NaCl solution (0.1 mL); after 5 min, the radiopeptide was injected and the percentage of injected activity per gram (%IA/g) was calculated for each tissue. The total counts injected per animal were determined by extrapolation from counts of an aliquot taken from the injected solution as a standard.

T1 sequence (P30874 whole entry): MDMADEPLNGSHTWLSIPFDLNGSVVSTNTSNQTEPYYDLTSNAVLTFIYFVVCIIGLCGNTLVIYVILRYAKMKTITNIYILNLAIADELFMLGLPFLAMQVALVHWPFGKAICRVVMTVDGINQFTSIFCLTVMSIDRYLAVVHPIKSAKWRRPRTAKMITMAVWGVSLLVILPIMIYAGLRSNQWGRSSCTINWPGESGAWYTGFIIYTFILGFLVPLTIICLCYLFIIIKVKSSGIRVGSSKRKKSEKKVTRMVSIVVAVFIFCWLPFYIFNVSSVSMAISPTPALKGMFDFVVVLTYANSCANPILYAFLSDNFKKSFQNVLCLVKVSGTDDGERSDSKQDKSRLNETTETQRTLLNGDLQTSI

In the case of “DOTA-pNO2Phe-cyclo[D-Cys-Tyr-D-Trp-Lys-Thr-Cys]-D-Tyr-NH2 (disulfide) [DOTA-sst2-ANT]”, the IC50 (sst2 [1]) is listed as 1.5 ± 0.4 nM, the IC50 (sst4 [2]) is listed as 287 ± 27 nM and the IC50 (sst3 [3]) is listed as > 1000 nM. For the same molecule, the IC50 (sst1 [4]) was > 1000 nM and the IC50 (sst5 [5]) was > 1000 nM.
With `C[C@@H](O)[C@@H]1NC(=O)[C@H](CCCCN)NC(=O)[C@@H](Cc2c[nH]c3ccccc23)NC(=O)[C@H](Cc2ccc(O)cc2)NC(=O)[C@H](NC(=O)[C@H](Cc2ccc(Cl)cc2)NC(=O)CN2CCN(CC(=O)O)CCN(CC(=O)O)CCN(CC(=O)O)CC2)CSSC[C@@H](C(=O)N[C@H](Cc2ccc(O)cc2)C(N)=O)NC1=O` [SS-03, DOTA-(4-Cl)-Phe-Cyclo(D-Cys-Tyr-D-Trp-Lys-Thr-Cys)-D-Tyr-NH2] the IC50 (sst4 [6]) was 404 ± 92 nM, the IC50 (sst5 [7]) was 564 ± 174 nM and the IC50 (sst1 [8]) was > 1000 nM. The IC50 (sst2 [9]) was 1.7 ± 0.06 nM and the IC50 (sst3 [10]) was > 1000 nM.
With `C[C@@H](O)[C@@H]1NC(=O)[C@H](CCCCN)NC(=O)[C@@H](Cc2c[nH]c3ccccc23)NC(=O)[C@H](Cc2ccc(O)cc2)NC(=O)[C@H](NC(=O)[C@H](Cc2ccc(Cl)cc2)NC(=O)C(CNCCN)CNCCN)CSSC[C@@H](C(=O)N[C@H](Cc2ccc(O)cc2)C(N)=O)NC1=O` [SS-04, N4-(4-Cl)-Phe-Cyclo(D-Cys-Tyr-D-Trp-Lys-Thr-Cys)-D-Tyr-NH2] the IC50 (sst4 [6]) was 171 ± 35 nM, the IC50 (sst5 [7]) was 228 ± 73 nM and the IC50 (sst1 [8]) was > 1000 nM. For the same molecule, the IC50 (sst2 [9]) was 5.3 ± 0.17 nM and the IC50 (sst3 [10]) was 720 ± 74 nM.
In the case of `C[C@@H](O)[C@@H]1NC(=O)[C@H](CCCCN)NC(=O)[C@@H](Cc2c[nH]c3ccccc23)NC(=O)[C@H](Cc2ccc(O)cc2)NC(=O)[C@H](NC(=O)[C@H](Cc2ccc(Cl)cc2)NC(=O)CN2CCN(CC(=O)O)CCN(CC(=O)O)CCN(CC(=O)O)CC2)CSSC[C@@H](C(=O)N[C@H](Cc2ccc(O)cc2)C(N)=O)NC1=O` [^177Lu-SS-03, metal not drawn], the “log D” value [11] is reported as “− 2.35 ± 0.22”, the tissue uptake at 1 h (in vivo; Adrenal uptake) is reported as 3.7 ± 0.63 %ID/g and the tissue uptake at 4 h (in vivo; Adrenal uptake) is reported as 2.9 ± 0.46 %ID/g. For the same molecule, the tissue uptake at 24 h (in vivo; Adrenal uptake) was 1.16 ± 0.46 %ID/g, the tissue uptake at 1 h (in vivo; Blood uptake) was 0.57 ± 0.04 %ID/g and the tissue uptake at 4 h (in vivo; Blood uptake) was 0.21 ± 0.04 %ID/g. For the same molecule, the tissue uptake at 24 h (in vivo; Blood uptake) was < 0.1 %ID/g, the tissue uptake at 1 h (in vivo; Bone uptake) was 4.11 ± 0.53 %ID/g and the tissue uptake at 4 h (in vivo; Bone uptake) was 2.77 ± 1.06 %ID/g. It also gave a tissue uptake at 24 h (in vivo; Bone uptake) of 1.25 ± 0.16 %ID/g, a tissue uptake at 1 h (in vivo; Heart uptake) of 0.69 ± 0.12 %ID/g and a tissue uptake at 4 h (in vivo; Heart uptake) of 0.38 ± 0.07 %ID/g. It also gave a tissue uptake at 24 h (in vivo; Heart uptake) of 0.11 ± 0.04 %ID/g, a tissue uptake at 1 h (in vivo; Intestine uptake) of 3.13 ± 1.16 %ID/g and a tissue uptake at 4 h (in vivo; Intestine uptake) of 2.28 ± 0.31 %ID/g. For the same molecule, the tissue uptake at 24 h (in vivo; Intestine uptake) was 0.27 ± 0.06 %ID/g, the tissue uptake at 1 h (in vivo; Kidney uptake) was 15.2 ± 1.86 %ID/g and the tissue uptake at 4 h (in vivo; Kidney uptake) was 17 ± 1.81 %ID/g. The tissue uptake at 24 h (in vivo; Kidney uptake) was 7.35 ± 1.66 %ID/g, the tissue uptake at 1 h (in vivo; Liver uptake) was 3 ± 0.66 %ID/g and the tissue uptake at 4 h (in vivo; Liver uptake) was 1.75 ± 0.22 %ID/g. The tissue uptake at 24 h (in vivo; Liver uptake) was 0.47 ± 0.07 %ID/g, the tissue uptake at 1 h (in vivo; Lung uptake) was 13.2 ± 4.49 %ID/g and the tissue uptake at 4 h (in vivo; Lung uptake) was 6.71 ± 1.37 %ID/g. The tissue uptake at 24 h (in vivo; Lung uptake) was 0.74 ± 0.22 %ID/g, the tissue uptake at 1 h (in vivo; Muscle uptake) was 0.22 ± 0.06 %ID/g and the tissue uptake at 4 h (in vivo; Muscle uptake) was 0.12 ± 0.02 %ID/g. For the same molecule, the tissue uptake at 24 h (in vivo; Muscle uptake) was 0.07 ± 0.02 %ID/g, the tissue uptake at 1 h (in vivo; Pancreas uptake) was 72.6 ± 13.8 %ID/g and the tissue uptake at 4 h (in vivo; Pancreas uptake) was 54.5 ± 7.28 %ID/g. For the same molecule, the tissue uptake at 24 h (in vivo; Pancreas uptake) was 3.03 ± 0.62 %ID/g, the tissue uptake at 1 h (in vivo; Spleen uptake) was 1.51 ± 0.19 %ID/g and the tissue uptake at 4 h (in vivo; Spleen uptake) was 1.42 ± 0.77 %ID/g. For the same molecule, the tissue uptake at 24 h (in vivo; Spleen uptake) was 0.33 ± 0.06 %ID/g, the tissue uptake at 1 h (in vivo; Stomach uptake) was 48.7 ± 13.1 %ID/g and the tissue uptake at 4 h (in vivo; Stomach uptake) was 30.2 ± 4.25 %ID/g. The tissue uptake at 24 h (in vivo; Stomach uptake) was 6.02 ± 1.4 %ID/g, the tissue uptake at 1 h (in vivo; Tumour uptake) was 23.6 ± 1.28 %ID/g and the tissue uptake at 4 h (in vivo; Tumour uptake) was 31.7 ± 4 %ID/g. The tissue uptake at 24 h (in vivo; Tumour uptake) was 26.3 ± 4.42 %ID/g, the tissue to tissue ratio at 1 h (in vivo; Tumour/blood ratio) was 41.3 and the tissue to tissue ratio at 4 h (in vivo; Tumour/blood ratio) was 150. The tissue to tissue ratio at 24 h (in vivo; Tumour/blood ratio) was 361, the tissue to tissue ratio at 1 h (in vivo; Tumour/bone ratio) was 5.7 and the tissue to tissue ratio at 4 h (in vivo; Tumour/bone ratio) was 11.5. For the same molecule, the tissue to tissue ratio at 24 h (in vivo; Tumour/bone ratio) was 21.1, the tissue to tissue ratio at 1 h (in vivo; Tumour/kidney ratio) was 1.56 and the tissue to tissue ratio at 4 h (in vivo; Tumour/kidney ratio) was 1.86. It also gave a tissue to tissue ratio at 24 h (in vivo; Tumour/kidney ratio) of 3.58, a tissue to tissue ratio at 1 h (in vivo; Tumour/liver ratio) of 7.9 and a tissue to tissue ratio at 4 h (in vivo; Tumour/liver ratio) of 18.1. The tissue to tissue ratio at 24 h (in vivo; Tumour/liver ratio) was 55.8, the tissue to tissue ratio at 1 h (in vivo; Tumour/muscles ratio) was 110 and the tissue to tissue ratio at 4 h (in vivo; Tumour/muscles ratio) was 259. For the same molecule, the tissue to tissue ratio at 24 h (in vivo; Tumour/muscles ratio) was 372.
For `C[C@@H](O)[C@@H]1NC(=O)[C@H](CCCCN)NC(=O)[C@@H](Cc2c[nH]c3ccccc23)NC(=O)[C@H](Cc2ccc(O)cc2)NC(=O)[C@H](NC(=O)[C@H](Cc2ccc(Cl)cc2)NC(=O)c2ccc(NN)nc2)CSSC[C@@H](C(=O)N[C@H](Cc2ccc(O)cc2)C(N)=O)NC1=O` [^99mTc-SS-05, metal not drawn], the “log D” value [11] was “− 2.03 ± 0.27”.
